Measurements: US20250011413A1 (MCMASTER UNIVERSITY, published 2025)
“And” between values parts separate entries of the source, which are not always exact repeats. Identical values can stand only once.

Experiments:
[1] = target: T1, PF4/heparin complex (human PF4 complexed with heparin) (human, UniProt P02776 32-101); test: BLI (Octet), biotinylated PF4/heparin on streptavidin sensors, scFv 1 µg/mL
T1 construct: Multimeric complex of PF4 with heparin (not a protein); In the EIAs: PF4 captured on biotinylated heparin on streptavidin plates; In the SRA: platelets with 0.2 U/mL heparin; also called PF4 and heparin complexes
T1 sequence: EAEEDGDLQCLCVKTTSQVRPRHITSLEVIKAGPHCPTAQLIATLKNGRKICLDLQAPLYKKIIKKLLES
Protocol: (§1) The Octet-QK Red 96 (FortéBio, Menlo Park, CA) instrumentation was used to conduct all BLI experiments. A 96-well microtiter plate (black, flat-bottom) was used to hold 200 μL per well of either sample or buffer. Pre-coated streptavidin biosensor tips (FortéBio) were hydrated in phosphate buffered saline (PBS) containing 1% bovine serum albumin (BSA, Sigma-Aldrich) before performing all kinetic assays. Each step was performed at an operating temperature of 23° C. with agitation at 1000 rpm. Streptavidin tips were first equilibrated in PBS+1% BSA to establish a baseline. […] The PF4-coated tips were then dipped into PBS+1% BSA for 13 minutes to re-establish a baseline. Tips were then incubated in an analyte solution containing half-fold dilutions of wildtype scFv (4.0, 2.0, 1.0, 0.5, 0.25 μg/mL in PBS+1% BSA) for 10 minutes to measure association. For mutant scFv association, tips were incubated in an analyte solution containing 200 μL of each mutant and wildtype scFv at a final concentration of 1 μg/mL in PBS+1% BSA. Antibody dissociation steps were performed by dipping sensors in wells containing PBS+1% BSA for 56 minutes. The following negative controls included in these kinetic experiments were also measured: 200 μL of buffer to replace both the antigen and scFv and 200 μL buffer replacing scFv only. Each experiment was performed with PF4 or with PF4/heparin as the immobilized antigen.
(§2) BLI experiments were performed to evaluate binding responses and affinities of wildtype and mutant scFv. Biotinylated PF4 alone or complexed with heparin was immobilized on streptavidin biosensors and used to capture wildtype scFv. Half-fold serial dilutions of wildtype scFv ranging from 0.25 μg/mL to 4 μg/mL were used to determine the optimal concentrations for future experiments PF4 (PF4 FIG. 3; PF4/heparin FIG. 4).

[2] = target: T1, PF4/heparin complex (human PF4 …); test: competition EIA, scFv 50 µg/mL; competitor HIT-negative sera antibodies, n=10
Protocol: (§3) Inhibitory PF4/heparin IgG-specific Streptavidin Enzyme Immunoassay (EIA). The binding activity of wildtype and mutant scFv antibodies to PF4/heparin complexes was measured using an inhibitory PF4/heparin IgG-specific EIA with a streptavidin-biotin capture system. Before performing this protocol, 96-well NUNC Maxisorp plates (ThermoFisher) were coated with 10 μg/mL streptavidin for 24 h. Plates were then blocked with 3% bovine serum albumin (BSA) in phosphate buffered saline (PBS) for 2 h at room temperature. Plates were then coated with 1 U/mL biotinylated-heparin for 1 h followed by 30 μg/mL PF4 for 1 h. Increasing concentrations of wildtype or mutant scFv were added and incubated for 1 hr at room temperature. Without removing wildtype or scFv, HIT patient sera in a 1:50 dilution or full-length KKO (2 μg/mL) was then incubated for 1 h at room temperature. After washing, alkaline phosphatase-conjugated anti-human or anti-mouse IgG (Jackson Immuno Research Laboratories, Inc., West Grove, PA) was added at a 1:4000 dilution and incubated for 1 h temperature. For detection, 1 mg/mL p-nitrophenylphosphate (PNPP, Sigma-Aldrich) substrate dissolved in 1 mol/L diethanolamine (DEA) buffer (pH 9.6) was added. The optical density (OD) was measured at 2 min intervals for 30 min at 405 nm (OD₄₀₅ₙₘ) using a BioTek 800 TS plate reader (BioTek Instruments Inc., Winooski, VT) to determine if anti-PF4/heparin antibody binding was inhibited. Results were reported as a decrease in OD (absorbance at 405 nm) from baseline levels.
Sera (n=10) from confirmed HIT-negative patients (EIA-positive/SRA-negative) containing anti-PF4/heparin antibodies were then used in the same EIA with scFv constructs to determine if antibody binding was decreased in this cohort (Table 5).

[3] = target: T1, PF4/heparin complex (human PF4 …); test: competition EIA, scFv 50 µg/mL; competitor HIT-positive sera antibodies, n=10
Protocol: as §3
Inhibiting HIT-Positive (EIA+/SRA+) HIT-Negative (EIA+/SRA−) antibody binding: Sera (n=10) from confirmed HIT-positive patients (EIA-positive/SRA-positive) containing anti-PF4/heparin antibodies were used in a modified streptavidin-biotin based anti-PF4/heparin IgG EIA (streptavidin anti-PF4/hep EIA) with scFv at 50 μg/mL. On average, antibody binding to PF4/heparin was reduced in the presence of scFv.

[4] = target: T1, PF4/heparin complex (human PF4 …); test: as above; remark: listed apart in the source
[5] = target: T2, Human PF4 (CXCL4), biotinylated, without heparin (human, UniProt P02776 32-101, biotinylated with EZ-link-Sulfo-NHS-LC-Biotin (sites not given)); test: BLI (Octet), biotinylated PF4 without heparin on streptavidin sensors, scFv 1 µg/mL
T2 construct: Immobilised on streptavidin biosensors for BLI; also called PF4 alone; platelet factor 4
T2 sequence: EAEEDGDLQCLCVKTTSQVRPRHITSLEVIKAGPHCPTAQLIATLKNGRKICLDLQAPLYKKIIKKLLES
Protocol: as §1, §2

[6] = target: T1, PF4/heparin complex (human PF4 …); test: competition EIA on PF4/biotinylated heparin, scFv 0-160 µg/mL; competitor full-length KKO 2 µg/mL
Protocol: as §3
To further evaluate the binding of mutant and wildtype scFv, their ability to inhibit full-length KKO from binding PF4/heparin complexes was assessed in a modified streptavidin-capture EIA. Biotinylated heparin was immobilized with PF4 on streptavidin-coated plates and incubated with KKO in the presence of scFv at half-fold serial dilutions from 0 to 160 μg/mL. […] Wildtype scFv and mutant C were unable to inhibit full-length KKO binding at these concentrations and IC50 values for these constructs were not calculated.

| Binder | average binding response (wavelength shift) [1] [nm] | mean OD405nm of bound serum IgG (+ scFv) [2] [OD405nm] | mean OD405nm of bound serum IgG (+ scFv) [3] [OD405nm] | mean % inhibition of serum antibody binding [4] [%] | average binding response (wavelength shift) [5] [nm] | fold increase of binding response against wildtype scFv [1] [fold] | fold increase of binding response against wildtype scFv [5] [fold] | IC50 [6] | fold higher binding response than wildtype scFv [1] [fold] | fold higher binding response than wildtype scFv [5] [fold] |
| --- | --- | --- | --- | --- | --- | --- | --- | --- | --- | --- |
| Wildtype scFv (KKO-derived single chain variable fragment) (scFv, VL-(G4S)3 linker-VH; expressed in E. coli BL21 from pADL-22c, purified on Ni-NTA as histidine-tagged scFv, about 28 kDa; also called WT; KKO-scFv; not shown: histidine tag from the pADL-22c vector) scFv: DIQMIQSQKFMSTSVGDRVTVTCKASQNVGTNVAWYQQKPGQSPNALIYSASYRYSGVPDRFTGSGSGTDFTLTITNVQSEDLADYFCQQYNSYPLTFGTGTKLDLKGGGGSGGGGSGGGGSVQLQQSGAELVKPGASVKLSCKASGYTFTNYFIYWVKQRPGQGLEWIGEINPRNGDTDFNEKFESRATLTVDKSSSTAYMQLSSLTSEDSAIYYCTRSPYGNNYGFTYWGQGTLVTVSA | 0.0758 | 1.41 | 0.931 | 44.7 | 0.0386 | – | – | – | – | – |
| Mutant B scFv, scFv(R18K, N152K, D180N) (scFv, VL-linker-VH; histidine-tagged, from E. coli BL21; also called Mut B; not shown: histidine tag from the pADL-22c vector) scFv: DIQMIQSQKFMSTSVGDKVTVTCKASQNVGTNVAWYQQKPGQSPNALIYSASYRYSGVPDRFTGSGSGTDFTLTITNVQSEDLADYFCQQYNSYPLTFGTGTKLDLKGGGGSGGGGSGGGGSVQLQQSGAELVKPGASVKLSCKASGYTFTKYFIYWVKQRPGQGLEWIGEINPRNGDTNFNEKFESRATLTVDKSSSTAYMQLSSLTSEDSAIYYCTRSPYGNNYGFTYWGQGTLVTVSA | 0.379 | 1.1 | 0.275 | 77.8 | 0.267 | 4 | 7 | 57.3 nM and 1.6 µg/mL | – | – |
| Mutant D scFv, scFv(Y156H) (scFv, VL-linker-VH; histidine-tagged, from E. coli BL21; also called Mut D; not shown: histidine tag from the pADL-22c vector) scFv: DIQMIQSQKFMSTSVGDRVTVTCKASQNVGTNVAWYQQKPGQSPNALIYSASYRYSGVPDRFTGSGSGTDFTLTITNVQSEDLADYFCQQYNSYPLTFGTGTKLDLKGGGGSGGGGSGGGGSVQLQQSGAELVKPGASVKLSCKASGYTFTNYFIHWVKQRPGQGLEWIGEINPRNGDTDFNEKFESRATLTVDKSSSTAYMQLSSLTSEDSAIYYCTRSPYGNNYGFTYWGQGTLVTVSA | 0.133 | 1 | 0.283 | 78.3 | 0.145 | – | – | 111 nM and 3.1 µg/mL | ≥ 3 | ≥ 3 |
| Mutant F scFv, scFv(E183V, E186K, G223R) (scFv, VL-linker-VH; histidine-tagged, from E. coli BL21; also called Mut F; not shown: histidine tag from the pADL-22c vector) scFv: DIQMIQSQKFMSTSVGDRVTVTCKASQNVGTNVAWYQQKPGQSPNALIYSASYRYSGVPDRFTGSGSGTDFTLTITNVQSEDLADYFCQQYNSYPLTFGTGTKLDLKGGGGSGGGGSGGGGSVQLQQSGAELVKPGASVKLSCKASGYTFTNYFIYWVKQRPGQGLEWIGEINPRNGDTDFNVKFKSRATLTVDKSSSTAYMQLSSLTSEDSAIYYCTRSPYRNNYGFTYWGQGTLVTVSA | 0.285 | 1.19 | 0.281 | 80 | 0.211 | 5 | 5 | 1.3 µg/mL | – | – |
| Mutant E scFv, scFv(Y156H, D180G, Q233P) (scFv, VL-linker-VH; histidine-tagged, from E. coli BL21; also called Mut E; not shown: histidine tag from the pADL-22c vector) scFv: DIQMIQSQKFMSTSVGDRVTVTCKASQNVGTNVAWYQQKPGQSPNALIYSASYRYSGVPDRFTGSGSGTDFTLTITNVQSEDLADYFCQQYNSYPLTFGTGTKLDLKGGGGSGGGGSGGGGSVQLQQSGAELVKPGASVKLSCKASGYTFTNYFIHWVKQRPGQGLEWIGEINPKNGDTGFNEKFESRATLTVDKSSSTAYMQLSSLTSEDSAIYYCTRSPYGNNYGFTYWGPGTLVTVSA | 0.0907 | 1.08 | 0.319 | 76.5 | 0.0986 | – | – | 293 nM and 8.2 µg/mL | – | 2 |
